The supplement of paper PMC7877785
± gives the uncertainty stated by the source.

Assay: self-splicing fitness, log relative to wild type (ln ratio); higher = more splicing; Tetrahymena group I intron in knt gene, E. coli kanamycin selection, DiMSum; sequences stand for … in CUCUCU…GGAGGGAAAAGUUAUCAGGCAUGCACCUGGUAGCUAGUCUUUAAACCAAUAGAUUGCAUCGGUUUAAAAGGCAAGACCGUCAAAUUGCGGGAAAGGGGUCAACAGCCGUUCAGUACCAAGUCUCAGGGGAAACUUUGAGAUGGCCUUGCAAAGGGUAUGGUAAUAAGCUGACGGACAUGGUCCUAACCACGCAGCCAAGUCCUAAGUCAACAGAUCUUCUGUUGAUAUGGAUGCAGUUCACAGACUAAAUGUCGGUCGGGGAAGAUGUAUUCUUCUCAUAAGAUAUAGUCGGACCUCUCCUUAAUGGGAGCUAGCGGAUGAAGUGAUGCAACACUGGAGCCGCUGGGAACUAAUUUGUAUGCGAAAGUAUAUUGAUUAGUUUUGGAGUACUCGUGGUCG
In short: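 Fitness was computed with DiMSum as the error-weighted combination of replicate fold changes, kanamycin versus none, each normalised to wild type. The library randomised all eight intron nucleotides of the P1ex region, with the intron placed in the knt kanamycin-resistance gene on pET-22b(+) in E. coli BL21(DE3). Six replicate transformations were grown overnight at 37°C or 30°C on LB agar with or without 25 μg/mL kanamycin, plus 100 μg/mL carbenicillin, 50 μM IPTG and 0.2% rhamnose. Pooled colonies were amplicon-sequenced on an Illumina HiSeq 2500.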

Sequence | self-splicing fitness (ln) (30 °C) | self-splicing fitness (ln) (37 °C)
UUUAAGCAAUAUUACGGCUG | -0.528 ± 0.13 | -0.292 ± 0.16
UCAUAGCAAUAUUACGCACG | -2.05 ± 0.11 | -0.462 ± 0.13
GACCAGCAAUAUUACGGGAU | -1.71 ± 0.084 | -0.575 ± 0.099
ACUUAGCAAUAUUACGUGUC | -3.37 ± 0.16 | -2.7 ± 0.25
UAGAAGCAAUAUUACGUGCA | -0.492 ± 0.087 | -0.0303 ± 0.093
AAGUAGCAAUAUUACGCUUA | -0.794 ± 0.14 | -0.587 ± 0.14
GAUGAGCAAUAUUACGGUCU | -3.87 ± 0.37 | -3.34 ± 0.26
CCCGAGCAAUAUUACGCUAG | -3.59 ± 0.37 | -1.73 ± 0.36
GAGCAGCAAUAUUACGAAGA | -2.69 ± 0.45 | -1.14 ± 0.27
AGGUAGCAAUAUUACGUUAA | -2.881 ± 0.025 | -1.91 ± 0.037
UUACAGCAAUAUUACGUGGC | -2.87 ± 0.26 | -2.92 ± 0.34
AACCAGCAAUAUUACGUCCU | 0.026 ± 0.043 | -0.134 ± 0.053
GGUCAGCAAUAUUACGGAUC | -2.95 ± 0.22 | -0.0513 ± 0.21
CGCCAGCAAUAUUACGUAUG | -0.516 ± 0.055 | -0.0225 ± 0.074
AUACAGCAAUAUUACGUAUU | -3.18 ± 0.16 | -2.54 ± 0.2
GCUGAGCAAUAUUACGAAGG | – | -1.52 ± 0.28
ACAGAGCAAUAUUACGAAUA | -3.45 ± 0.32 | -2.2 ± 0.35
GUUUAGCAAUAUUACGCUAU | – | -1.56 ± 0.29
UAGCAGCAAUAUUACGGUGA | -0.912 ± 0.08 | -0.0764 ± 0.096
GAAUAGCAAUAUUACGUAUA | -2.32 ± 0.15 | -1.54 ± 0.15
AGGUAGCAAUAUUACGUUGA | -2.893 ± 0.022 | -1.61 ± 0.035

Sequence | self-splicing fitness (ln) (30 °C) | self-splicing fitness (ln) (37 °C)
GUAAAGCAAUAUUACGUAAA | -2.08 ± 0.1 | -0.853 ± 0.11
UUUAAGCAAUAUUACGCCUG | -0.642 ± 0.14 | -0.13 ± 0.14
AUUAAGCAAUAUUACGAUGC | -2.09 ± 0.15 | -1.86 ± 0.17
CGUGAGCAAUAUUACGAAUG | -1.41 ± 0.16 | -0.913 ± 0.13
UUCUAGCAAUAUUACGUGUC | -3.35 ± 0.19 | -3.01 ± 0.21
CUGCAGCAAUAUUACGCGAA | -3.31 ± 0.33 | -2.52 ± 0.27
CAACAGCAAUAUUACGUACG | -0.0141 ± 0.079 | 0.194 ± 0.11
CCCCAGCAAUAUUACGGGUG | -3.8 ± 0.12 | -2.91 ± 0.13
GAAGAGCAAUAUUACGCUGU | -3.82 ± 0.3 | -2.6 ± 0.29
GACCAGCAAUAUUACGUGGA | -1.67 ± 0.078 | -0.914 ± 0.081
AUGUAGCAAUAUUACGCCUU | -0.114 ± 0.1 | -0.413 ± 0.13
CAAGAGCAAUAUUACGCGGG | -2.7 ± 0.25 | -2.89 ± 0.34
GAAUAGCAAUAUUACGGGGC | -3.15 ± 0.43 | –
GCGUAGCAAUAUUACGUUUC | -4.29 ± 0.34 | -1.83 ± 0.22
CAUUAGCAAUAUUACGCUCC | – | -1.18 ± 0.38
AAGUAGCAAUAUUACGCGGA | -2.09 ± 0.18 | -1.04 ± 0.15
UAAGAGCAAUAUUACGGGUU | -3.51 ± 0.29 | -2.06 ± 0.31
CCGUAGCAAUAUUACGCUGU | -3.79 ± 0.25 | -3.17 ± 0.26
AUAGAGCAAUAUUACGCCUA | -0.415 ± 0.11 | 0.144 ± 0.15
AUUCAGCAAUAUUACGGGGU | -3.78 ± 0.39 | -2.85 ± 0.26
GCACAGCAAUAUUACGCCCA | -1.72 ± 0.27 | -0.754 ± 0.24

Sequence | self-splicing fitness (ln) (30 °C) | self-splicing fitness (ln) (37 °C)
GCCAAGCAAUAUUACGCGGG | -3.54 ± 0.23 | -2.37 ± 0.18
UGUUAGCAAUAUUACGAUGU | -1.78 ± 0.12 | -0.548 ± 0.13
CCCUAGCAAUAUUACGAUGA | -3.24 ± 0.18 | -2.35 ± 0.2
AUAGAGCAAUAUUACGUCCA | -2.35 ± 0.21 | -0.672 ± 0.2
AGUUAGCAAUAUUACGACGA | -0.101 ± 0.18 | -0.368 ± 0.14
AUAUAGCAAUAUUACGUGCG | -0.942 ± 0.094 | -0.942 ± 0.13
ACUCAGCAAUAUUACGUCAG | -2.31 ± 0.1 | -2.68 ± 0.17
GACGAGCAAUAUUACGGCUC | -2.6 ± 0.12 | -1.41 ± 0.15
AGGCAGCAAUAUUACGAGAG | -3.49 ± 0.15 | -2.79 ± 0.15
UUGUAGCAAUAUUACGUAAG | -2.25 ± 0.17 | -1.02 ± 0.16
GCAGAGCAAUAUUACGAGAC | -3.42 ± 0.21 | -2.03 ± 0.12
CCUAAGCAAUAUUACGACUA | -2.87 ± 0.4 | -1.59 ± 0.33
CAUAAGCAAUAUUACGUUGA | -3.55 ± 0.16 | -2.85 ± 0.16
AAACAGCAAUAUUACGACAC | -1.95 ± 0.15 | -0.33 ± 0.15
AUUUAGCAAUAUUACGUGAU | -0.978 ± 0.12 | -0.863 ± 0.12
AGAGAGCAAUAUUACGUUGA | -2.77 ± 0.23 | -2.06 ± 0.26
UUCCAGCAAUAUUACGGCAG | -0.446 ± 0.075 | -0.096 ± 0.11
CGUAAGCAAUAUUACGUCUC | -3.77 ± 0.28 | -1.95 ± 0.17
GGCAAGCAAUAUUACGGUAA | -1.28 ± 0.097 | 0.108 ± 0.094
